± gives the standard deviation.

This data set is described as follows: protein stability index of a GFP-peptide fusion (GPS, HEK-293T) (PSI 1-6); higher = more stable. Particulars: c terminus: a fixed tail appended.
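Note: 24-mer peptide tiles fused after GFP, lentivirally expressed, FACS-sorted into six equal bins by GFP/DsRed ratio, decoded by Illumina sequencing, PSI is the read-weighted mean bin number.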

For ANGGAICAVTFFTILLSYGVILHS [OR4A15], the protein stability index is, setting by setting: (treatment: DMSO) 2.79 ± 0.25; (treatment: MLN4924 1 uM, 8 h) 2.84 ± 0.31.
As to ANRWSFDGIDRWIKEIDEHAPGVP [RAB40B], the protein stability index was 3.92 ± 0.076 (treatment: DMSO) and 3.92 ± 0.12 (treatment: MLN4924 1 uM, 8 h).
The corresponding values for ANSSSEAPFPNVSTSLLTSAGNRT [ADAMTSL2] are 4.52 ± 0.36 and 4.49 ± 0.29.
For APGLYNHLPWQYHAGQGGLFYSAE [CCDC3], the protein stability index worked out at 2.69 ± 0.084 (treatment: DMSO) and 3.25 ± 1.1 (treatment: MLN4924 1 uM, 8 h).
In the same order, the values of APRPGPPAGTPPPTARHFQEHPRQ [MOSPD3] are 4.99 ± 0.36 and 4.86 ± 0.35.
The corresponding values for APSKEEMLSWILRINLVAAIFSAP [PSD2] are 2.71 ± 0.32 and 3.03 ± 0.62.
In the same order, the values of AQQLLREFEEATGEAGWGAGEGRL [FOXJ1] are 4.74 ± 0.16 and 4.66 ± 0.34.
In the case of AQVPPAAPHHHHHHSHSGPEISRI [PLK2], the protein stability index is, setting by setting: (treatment: DMSO) 4.09 ± 0.073; (treatment: MLN4924 1 uM, 8 h) 4.1 ± 0.13.
In the same order, the values of ARALLEDDSDTQQVVVLVRDNGDP [PCDHGC5] are 4.82 ± 0.1 and 4.79 ± 0.46.
The corresponding values for AREGLAAPPRRLRSRKVSCPLTRS [FCHO1] are 3.93 ± 0.12 and 4.13 ± 0.35.
ARICRLLKHPNIVRLHDSISEEGH [CAMK2A]: the protein stability index (treatment: DMSO) was determined as 2.85 ± 0.17 and the protein stability index (treatment: MLN4924 1 uM, 8 h) is 2.84 ± 0.33.
Regarding ARKLTAQRRASTVSSVTQVEVDEN [NET1], the protein stability index by setting is: (treatment: DMSO) 5.15 ± 0.39; (treatment: MLN4924 1 uM, 8 h) 5.14 ± 0.33.
For the sequence ARKRKNRRLKQAKEEAQAEIEQYR [ATP6V1G1], the protein stability index by setting is: (treatment: DMSO) 5.03 ± 0.38; (treatment: MLN4924 1 uM, 8 h) 5.13 ± 0.32.
In the same order, the values of ARRRKKILFYCHFPDLLLTKRDSF [ALG2] are 2.4 ± 0.56 and 2.04 ± 0.55.
In the same order, the values of ARYIDTHNRVSKEDEDIYKLRHDL [PLK2] are 3.75 ± 0.3 and 3.8 ± 0.13.
In the same order, the values of ASDIMEPNLTYVYPHTRIQSLVSI [CLCN6] are 2.38 ± 0.49 and 2.34 ± 0.38.
Take ASGPINFTMFLNLFGEKLSGTDAE [MYL5]: the protein stability index is, setting by setting: (treatment: DMSO) 2.58 ± 0.28; (treatment: MLN4924 1 uM, 8 h) 2.6 ± 0.4.
The corresponding values for ASKKTAQPWVEVVLALRNMKNLLF [MFSD9] are 2.75 ± 0.73 and 2.57 ± 0.39.
In the same order, the values of ASLHPSVSPGSPPPPLPNHKYNTT [PLAGL1] are 4.58 ± 0.14 and 4.586 ± 0.043.
The corresponding values for ASLNIKTTVPEVEPPQDSHSRKTV [PRPH] are 5.21 ± 0.43 and 5.18 ± 0.21.
Turning to ASQCCGVHVISLHIWELSSIKNSL [PTGFR], the protein stability index (treatment: MLN4924 1 uM, 8 h) came out at 2.31 ± 0.52.
For ASRQKTSLGIELHCNVSNILHMNG [ZNF396], the protein stability index by setting is: (treatment: DMSO) 1.97 ± 0.23; (treatment: MLN4924 1 uM, 8 h) 2.12 ± 0.14.
In the same order, the values of ASWAKPHYEFNLSRMKFRGNGALS [LCOR] are 2.56 ± 0.19 and 2.71 ± 0.24.
The corresponding values for ATFHVGGGPAQNAPHQQPPAPPSD [TFE3] are 4.86 ± 0.16 and 4.84 ± 0.26.
The corresponding values for AVEGAARTTPSRREITGVQAQPGE [PALM] are 5.22 ± 0.36 and 5.31 ± 0.28.
Consider AVMEFHVSEDFNKMNFIKTYPAHQ [WDFY1], for which the protein stability index (treatment: DMSO) was determined as 1.99 ± 0.32 and the protein stability index (treatment: MLN4924 1 uM, 8 h) amounted to 1.93 ± 0.28.
In the same order, the values of AVNRARRPLARPIKRGDILPPEKG [RHOBTB1] are 3.66 ± 0.23 and 3.77 ± 0.33.
For the sequence AYEIMQTLHPDASANFHSLDDIYY [FUT8], the protein stability index runs as follows: (treatment: DMSO) 2.85 ± 0.25; (treatment: MLN4924 1 uM, 8 h) 2.93 ± 0.37.
As for CATGLLGSAPFLFLSLACARGSIV [SPNS1], the protein stability index by setting is: (treatment: DMSO) 3.02 ± 0.21; (treatment: MLN4924 1 uM, 8 h) 2.88 ± 0.28.
With CFFRDHSYQEEAAMELKVEDPFYW [MOG], the protein stability index came out at 3.04 ± 0.23 (treatment: DMSO) and 3.02 ± 0.24 (treatment: MLN4924 1 uM, 8 h).
CGPAEERVLLTGLHAVADIHCENC [YPEL3]: the protein stability index is, setting by setting: (treatment: DMSO) 3.25 ± 0.33; (treatment: MLN4924 1 uM, 8 h) 3.58 ± 0.67.
In the case of CKCGECTAPRTLPSCLACNRQCLC [SPRY1], the protein stability index by setting is: (treatment: DMSO) 4.05 ± 0.2; (treatment: MLN4924 1 uM, 8 h) 4.04 ± 0.14.
With CKNGETLLGAVNFFVSSINTLVTK [ARFIP2], the protein stability index was 2.72 ± 0.75 (treatment: DMSO) and 2.64 ± 0.88 (treatment: MLN4924 1 uM, 8 h).
In the same order, the values of CLEPLEQKLQEITRCKSSEEKKPG [TRIM39] are 4.89 ± 0.23 and 5.08 ± 0.18.
As to CPGKGAWSIPWKWLFGATAVALGG [FKBP8], the protein stability index amounted to 2.42 ± 0.3 (treatment: DMSO) and 2.37 ± 0.25 (treatment: MLN4924 1 uM, 8 h).
In the same order, the values of CRMSIRRVMPTQEVQELPIPSKLL [WSB1] are 2.42 ± 0.2 and 2.52 ± 0.2.
The corresponding values for CSFSIERILGLDQKKDCVPLMKPH [HESX1] are 2.33 ± 0.19 and 2.43 ± 0.23.

Source of the values: the supplement of paper PMC10567573.
